Experimental data from paper PMC10470788.

What was measured:
[1] = biological target: BxpB (recombinant, 167 residues, His6 tag removed with Factor Xa) (Bacillus anthracis (Sterne strain)) (UniProt S5W424); experiment: SEC-MALS
[2] = biological target: BxpB (recombinant, 167 residues, His6 tag removed with Factor Xa) (Bacillus anthracis (Sterne strain)) (UniProt S5W424); experiment: crystal structure

“BxpB (recombinant, 167 residues, His6 tag removed with Factor Xa) (from UniProt S5W424 1-167) (natural protein)” gave a stoichiometry N [1] of 3 and a stoichiometry N [2] of 3.
